According to patent publication US9266964:
Substitutions are numbered along the chain they refer to.

B1: M9-F09 (Fab, V domains shown)
VH: EVQLLESGGGLVQPGGSLRLSCAASGFTFSSYPMGWVRQAPGKGLEWVSRISSSGGMTIYADSVKGRFTISRDNSKNTLYLQMNSLRAEDTAVYYCARDDWNVGMDVWGQGTTVTVSS
VL: DIQMTQSPSSLSASVGDRVTITCRASQSISSYLNWYQQKPGKAPKLLIYAASSLQSGVPSKFSGSGSGTDYTLTISSLQPEDFATYYCQQTYTTPWTFGQGTKVEIK
notes: Fab fragment (E. coli TG1); printed HC runs into the start of CH1
B2: M9-C08 (Fab, V domains shown)
VH: EVQLLESGGGLVQPGGSLRLSCAASGFTFSHYGMVWVRQAPGKGLEWVSYIVPSGGLTYYADSVKGRFTISRDNSKNTLYLQMNSLRAEDTAVYYCARVDYTGDGLGYWGQGTLVTVSS
VL: DIQMTQSPSSLSASVGDRVTITCRASQSISIYVNWYQQKPGKAPNLLIFAASSLQRGVPSRFSGSGSGADFTLTISSLQPEDFATYYCQQSFSTPLTFGGGTKVEIK
notes: as for B1
B3: M9-E04 (Fab, V domains shown)
VH: EVQLLESGGGLVQPGGSLRLSCAASGFTFSEYDMMWVRQAPGKGLEWVSSIGSSGGMTYYADSVKGRFTISRDNSKNTLYLQMNSLRAEDTAVYYCARDQVAAAAIDYWGQGTLVTVSS
VL: DIQMIQSPSSLSASVGDRVTITCRASQSISGYLNWYQQRSGKAPKLLIFAASNLQTGVPSRFSGSGSGTDFTLTINNLQPEDFATYYCQQSHTPPKTFGPGTKVDIK
notes: as for B1
B4: M9-D08 (Fab, V domains shown)
VH: EVQLLESGGGLVQPGGSLRLSCAASGFTFSWYKMMWVRQAPGKGLEWVSSIYPSGGWTNYADSVKGRFTISRDNSKNTLYLQMNSLRAEDTAVYYCTRGSPWGDDAFDIWGQGTMVTVSS
VL: DIQMTQSPSSLSASVGDRVTLTCRASRTISFYLNWYQQKAGKAPELLIYGGSSLHSGVPSRFSGSGSGTDFSLTISNLQPEDIAVYYCQQSFSSPWTFGQGTKVEIK
notes: as for B1
B5: M9-F08 (Fab, V domains shown)
VH: EVQLLESGGGLVQPGGSLRLSCAASGFTFSPYAMTWVRQAPGKGLEWVSVIYPSGGFTDYADSVKGRFTISRDNSKNTLYLQMNSLRAEDTAMYYCARASGSYLDAFDIWGQGTMVTVSS
VL: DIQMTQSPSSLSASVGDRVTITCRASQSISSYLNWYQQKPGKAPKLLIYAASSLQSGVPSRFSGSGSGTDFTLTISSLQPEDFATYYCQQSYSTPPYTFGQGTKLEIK
notes: Fab fragment (E. coli TG1); printed HC runs into the start of CH1; The LC is printed with an amber codon 'q' (MTqSPS), written here as Q
B6: M9-A08 (Fab, V domains shown)
VH: EVQLLESGGGLVQPGGSLRLSCAASGFTFSAYEMWWVRQAPGKGLEWVSYIGSSGGSTSYADSVKGRFTISRDNSKNTLYLQMNSLRAEDTAVYYCTGGNSSSFDAFDIWGQGTMVTVSS
VL: DIQMTQSPSSLSASVGDRVTVTCRASQRISTYLNWYQQKPGKAPKLLISGASSLQSGVPSRFSGSGSGTDFTLTISSLQPDDFATYYCQQSYNTPRTFGQGTKVEIR
notes: as for B1
B7: M9-C10 (Fab, V domains shown)
VH: EVQLLESGGGLVQPGGSLRLSCAASGFTFSLYPMQWVRQAPGKGLEWVSSIGSSGGMTFYADSVKGRFTISRDNSKNTLYLQMNSLRAEDTAVYYCTREVGAAGFAFDIWGQGTMVTVSS
VL: DIQMTQSPSSLSASVGDRVTITCRASQGISSYLNWYQQKPGNAPNLLIYGASSLQSGVPSRFSGSGSGTDFTLTISSLQPEDFATYYCQESYSTLFTFGPGTTVEIK
notes: as for B1
B8: M201-H08 (Fab, V domains shown)
VH: EVQLLESGGGLVQPGGSLRLSCAASGFTFSHYIMMWVRQAPGKGLEWVSGIYSSGGITVYADSVKGRFTISRDNSKNTLYLQMNSLRAEDTAVYYCAYRRTGVPRRDALDNWGQGTMVTVSS
VL: DIQMTQSPSTLSASVGDRVTITCRASQSISSWLAWYQQKPGKAPNLLIYKASTLESGVPSRFSGSGSGTEFTLTISSLQPDDFATYYCQQYNTYWTFGQGTKVEIK
B9: M202-A10 (Fab, V domains shown)
VH: B8 VH with Y98F, V103I, A108S, L109F, N111I
VL: B8 VL
B10: M202-E03 (Fab, V domains shown)
VH: B8 VH with V103I, L109F, D110E, N111I
VL: B8 VL
B11: M195-F12 (Fab, V domains shown)
VH: B8 VH with I33V, G50Y, Y52V, S53P, I57V, V59A, V103I, L109F, N111I
VL: B8 VL
B12: M201-F11 (Fab, V domains shown)
VH: B8 VH with T101S, V103I, L109F, N111I
VL: B8 VL
B13: M198-H09 (Fab, V domains shown)
VH: EVQLLESGGGLVQPGGSLRLSCAASGFTFSIYLMIWVRQAPGKGLEWVSYIGPSGGPTEYADSVKGRFTISRDNSKNTLYLQMNSLRAEDTAVYYCAYRRTGIPRRDAFDIWGQGTMVTVSS
VL: B8 VL
B14: M196-D02 (Fab, V domains shown)
VH: B13 VH with I31V, L33S, I35H, Y50V, P57I, E59L
VL: B8 VL
B15: M195-A02 (Fab, V domains shown)
VH: B8 VH with H31Q, I33M, Y52S, I57H, V59D, V103I, L109F, N111I
VL: B8 VL
B16: M202-C02 (Fab, V domains shown)
VH: B8 VH with T101P, L109F, N111I
VL: B8 VL
B17: M199-B01 (Fab, V domains shown)
VH: B8 VH with Y98F, V103I, L109F
VL: B8 VL
B18: M198-A08 (Fab, V domains shown)
VH: EVQLLESGGGLVQPGGSLRLSCAASGFTFSWYMMQWVRQAPGKGLEWVSRISPSGGTTYADSVKGRFTISRDNSKNTLYLQMNSLRAEDTAVYYCAYRRTGIPRRDAFDIWGQGTMVTVSS
VL: B8 VL
B19: M200-F01 (Fab, V domains shown)
VH: B8 VH with T101M, V103I, D107N, L109F, N111I
VL: B8 VL
B20: M195-A12 (Fab, V domains shown)
VH: B8 VH with H31P, I33M, S53P, I57Y, V103I, L109F, N111I
VL: B8 VL
B21: M201-A06 (Fab, V domains shown)
VH: B8 VH with V103I, A108V, L109F, N111I
VL: B8 VL
B22: M199-A11 (Fab, V domains shown)
VH: B8 VH with T101R, V103I, L109F, N111I
VL: B8 VL
B23: M198-C03 (Fab, V domains shown)
VH: B13 VH with I31R, L33S, I35S, Y50G, G52S, P57E, E59S
VL: B8 VL
B24: M195-G02 (Fab, V domains shown)
VH: B13 VH with I31P, L33N, I35M, Y50S, G52W, P57T, E59D
VL: B8 VL
B25: M196-G12 (Fab, V domains shown)
VH: B13 VH with I31N, L33S, I35D, Y50R, G52Y, P53S, P57G, E59I
VL: B8 VL
B26: M198-G03 (Fab, V domains shown)
VH: EVQLLESGGGLVQPGGSLRLSCAASGFTFSQYTMVWVRQAPGKGLEWVSWIYSSRANYADSVKGRFTISRDNSKNTLYLQMNSLRAEDTAVYYCAYRRTGIPRRDAFDIWGQGTMVTVSS
VL: B8 VL
B27: M200-B01 (Fab, V domains shown)
VH: B8 VH with V103I, L109F, N111S
VL: B8 VL
B28: M198-A01 (Fab, V domains shown)
VH: B13 VH with I31P, L33T, G44L, L45G, Y50S, G52S, P53S, P57M, E59P
VL: B8 VL
B29: M202-A08 (Fab, V domains shown)
VH: B8 VH with V103I, R106W, L109F, N111I
VL: B8 VL
B30: M197-G11 (Fab, V domains shown)
VH: B13 VH with I31T, L33A, I35V, Y50S, G52Y, P57I, E59T
VL: B8 VL
B31: M195-E12 (Fab, V domains shown)
VH: B13 VH with I31Y, L33I, I35F, G52S, P57Y, E59H
VL: B8 VL
B32: M197-C12 (Fab, V domains shown)
VH: B13 VH with I31P, L33D, I35L, G52V, P53S, P57L, E59K
VL: B8 VL
B33: M197-G10 (Fab, V domains shown)
VH: B13 VH with I31V, L33A, I35R, Y50S, G52Y, P57K, E59W
VL: B8 VL

These binders were tested against T1, human plasma kallikrein (human, UniProt P03952 20-390; P03952 391-638) (assay: ELISA; signal on coated biotinylated human plasma kallikrein divided by signal on streptavidin; Fab).
T1 construct: two disulfide-linked chains; also called pKal; human pKal
Text: Abbreviations used: "T/B" is the ELISA signal obtained using of the target (biotinylated plasma kallikrein) divided by the ELISA signal of the "background" (streptavidin); both of which were coated on microtiter plates. "nd" is not determined. The symbol "q" refers to the amber suppressible stop codon (TAG), which is translated as glutamine (Q) in strains of E. coli such as the TG1 cells that were used to express the Fab fragments.
T1 sequence (P03952 20-390, chain 1 of 2): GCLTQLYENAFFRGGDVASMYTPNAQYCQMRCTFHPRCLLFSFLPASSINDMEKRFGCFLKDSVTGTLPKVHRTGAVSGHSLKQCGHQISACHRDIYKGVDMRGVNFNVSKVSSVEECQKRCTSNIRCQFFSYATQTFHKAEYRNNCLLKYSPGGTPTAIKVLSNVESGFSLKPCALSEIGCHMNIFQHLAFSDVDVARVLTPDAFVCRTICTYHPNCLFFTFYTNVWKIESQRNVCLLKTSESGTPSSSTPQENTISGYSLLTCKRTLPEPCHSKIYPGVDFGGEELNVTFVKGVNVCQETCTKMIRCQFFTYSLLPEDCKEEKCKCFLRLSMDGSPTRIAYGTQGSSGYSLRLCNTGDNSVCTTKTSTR
T1 sequence (P03952 391-638, chain 2 of 2): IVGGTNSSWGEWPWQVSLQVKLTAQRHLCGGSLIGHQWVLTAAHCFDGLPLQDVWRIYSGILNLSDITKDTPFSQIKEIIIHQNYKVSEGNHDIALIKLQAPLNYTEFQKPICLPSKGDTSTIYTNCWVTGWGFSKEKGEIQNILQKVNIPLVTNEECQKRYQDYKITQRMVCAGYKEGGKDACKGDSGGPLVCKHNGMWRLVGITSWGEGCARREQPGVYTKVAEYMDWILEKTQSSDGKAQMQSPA

Row | Human pKal ELISA (T/B) | Binder
1 | 7 T/B (target signal / background signal) | B1
2 | 10.9 T/B (target signal / background signal) | B2
3 | 18.8 T/B (target signal / background signal) | B3
4 | 35.9 T/B (target signal / background signal) | B4
5 | 10.9 T/B (target signal / background signal) | B5
6 | 5.5 T/B (target signal / background signal) | B6
7 | 7.8 T/B (target signal / background signal) | B7

The binders below were run against human plasma kallikrein (human, UniProt P03952 20-390; P03952 391-638) (assay: cell-based or functional assay).
Target sequence in this assay (P03952 20-390, chain 1 of 2): as the sequence (P03952 20-390, chain 1 of 2) above
Target sequence in this assay (P03952 391-638, chain 2 of 2): as the sequence (P03952 391-638, chain 2 of 2) above

Row | % inhibition at 10 nM [%] | Binder
8 | 74.5 | B8
9 | 36.3 | B9
10 | 51.4 | B10
11 | 45.5 | B11
12 | 15.7 | B12
13 | 41.1 | B13
14 | 66.2 | B14
15 | 71.3 | B15
16 | 74.3 | B16
17 | 53.4 | B17
18 | 72.3 | B18
19 | 65.1 | B19
20 | 51.7 | B20
21 | 36.8 | B21
22 | 65.4 | B22
23 | 72.4 | B23
24 | 67.5 | B24
25 | 51.1 | B25
26 | 53.8 | B26
27 | 42.6 | B27
28 | 13.8 | B28
29 | 52.9 | B29
30 | 19.2 | B30
31 | 38 | B31
32 | 56.4 | B32
33 | 67.6 | B33
